# Target: phosphopeptide-ligated β2AR with a deletion of the third intracellular loop (β2ARppΔ238-267), in HDL particles (human), P07550
# Test: cell-based or functional assay
binder,measurement,value
"β-arrestin1, minimal cysteine and truncated variant of rat βarr1 (βarr1-MC-393), P29066 1-393 (protein, UniProt P29066 1-393, looked up) MGDKGTRVFKKASPNGKLTVYLGKRDFVDHIDLVDPVDGVVLVDPEYLKERRVYVTLTAAFRYGREDLDVLGLTFRKDLFVANVQSFPPAPEDKKPLTRLQERLIKKLGEHAYPFTFEIPPNLPSSVTLQPGPEDTGKAIGVDYEVKAFVAENLEEKIHKRNSVRLVIRKVQYAPERPGPQPTAETTRQFLMSDKPLHLEASLDKEIYYHGEPISVNVHVTNNTNKTVKKIKISVRQYADIVLFNTAQYKVPVAMEEADDTVAPSSTFSKVYTLTPFLANNREKRGLALDGKLKHEDTNLASSTLLREGANREILGIIVSYKVKVKLVVSRGGLLGDLASSDVAVELPFTLMHPKPKEEPPHREVPESETPVDTNLIELDTNDDDIVFEDFAR",fold increase of agonist affinity by the transducer,10 fold
same,"log IC50 of isoproterenol (ISO), competition radioligand binding, in the presence of βarr1 (no transducer: -6.91+/-0.04)",-7.63 log
